Results: US20030138450A1

Target: AMA1/E, refolded recombinant Plasmodium falciparum (3D7) AMA-1 ectodomain (amino acids 83-531) with N- and C-terminal histidine tags (Plasmodium falciparum 3D7) (UniProt P22621)
Test: ELISA on plate-coated refolding mixtures of r-AMA1/E (GSH/GSSG 1/0.1 mM and 1/0.25 mM), against r-AMA1/E diluted in phosphate buffer with EDTA alone

## rat monoclonal antibody 4G2dc1
  fold ELISA reactivity over the phosphate buffer control: 5 fold
